Reference: the DeepSol protein solubility set

Assay: soluble on expression in E. coli; label from the status in PepcDB or PDB records

Which “soluble on expression in E. coli” value does the source give for “GMTTWKELTDNNPAHSENYAQRWRNLAAAGNDIYGEARLIDAMAPRGAKILDAGCGQGRIGGYLSKQGHDVLGTDLDPILIDYAKQDFPEARWVVGDLSVDQISETDFDLIVSAGNVMGFLAEDGREPALANIHRALGADGRAVIGFGAGRGWVFGDFLEVAERVGLELENAFESWDLKPFVQGSEFLVAVFTKK” here?
Its value is “soluble”.

With “MLGSIACSMEFEDFDLYSYFYGLVKQIPEGYVTTYGDLAQALGDPIAARAVGYMLSINEDPDTIPCYRVVLHDGTVGNYTHPLGPMEKVRRLRADGIPVVDGMIENFDRYRFRDFKTDQPLRKMQQYQEYIARKYSESGAGEFRTVAAFDVSYEERRAFASMVIQDGSTIEAYVISDGINFPYIPGYLAFREFRFIKKLYRKADLLLIDGNGILHPRFAGLATHAGVLLDRASIGVAKHLTRSTRHQDIIYMQDRPVGVMIRKNMIVSPGNFIDVNGSADTVRKMWNDRYPWPLKLAHQLSTRHAETGGRVSEYSIESAHELHLEHHHHHH” as the sequence, how does the “soluble on expression in E. coli” value read?
Its value is “soluble”.

For “MSVQPETMPDSSNKTNPTVKEVIAYLADKFPLCFSIEGEAKPLKVGLSQDLAEALADDEKVSKTLLRQVLRSYTMSWRYLACCKANAQRIGLQGENVGIVDEAQAEHAAQSLAVAKEAYAARKAEQRKEQRKDFFKKKAREERNAKTMNKAVKKGSPKKDTFAKATAESLAVLTHKFSKGNK”, which “soluble on expression in E. coli” value is on record?
Its value is “not soluble”.

For “MQLTKLTQEIFDHLYRDISEFRQTFDLPVAAPQTLNSQADTLHTSLAIEELTELAQADNKTEQADAIVDTVYVLMGRLVHLGHAKVEDNLAISYLIDLLLHVAANLNIDFLPCWDEVHSSNMSKVCRSEQEYLDTEKFYAEQGVKLMAVHQGEYIIAKCAEDFISESKTVRQGKVLKSVYYRPANLAALTQ”, which “soluble on expression in E. coli” value is on record?
The value was “not soluble”.

For “MVQREKARDNFEGGCLAELIGSPRDWKCFLAVPDPLLGVQHWLHLWRPQTKDGNSLHRHGDQAWGKHRRQNSLKSPALSGHSIDYHFYPRLRCGMLIGPDKQAVASGLEVLVTSSTKILGQLFPDAAHFLEEASEFKAE”, which “soluble on expression in E. coli” value is on record?
The value was “soluble”.

With “PAIDYKTAFHLAPIGLVLSRDRVIEDCNDELAAIFRCARADLIGRSFEVLYPSSDEFERIGERISPVMIAHGSYADDRIMKRAGGELFWCHVTGRALDRTAPLAAGVWTFEDLSATRRVA” as the sequence, how does the “soluble on expression in E. coli” value read?
Its value is “soluble”.

With “MASSKNYLEFVLEQLSGLDDVTYRSMMGEYILYFRGKIIGGIYDDRFLVKPVQAVLDKIDQSSFEFPYKGAKEMI” as the sequence, how does the “soluble on expression in E. coli” value read?
Its value is “not soluble”.

Which “soluble on expression in E. coli” value does the source give for “MGSKISIINHINTIRYYLKKNEVEDKVEDPAGAAEPESTEAFGTFISPSTGMEFIMAPAGEFLMGSSPEEKGRSYSESPVHRVTIKNPFYIGKYQVTQKQWKTIMGTSPSNFNEDFRPVELVSWEDVQEFIGKLNAMENTTKYRLPSEAEWEYACRAGKQSRYFFGEDESKLGDYAWYARNAGRKTHPAGRKKPNRWGLYDMCGNVWEWVQDSWHEDYNGAPSDGSAWEDGNSSNRVSRGGSWYCSTNSCRSASRFSREPEKHLANLGFRLVKELLEHHHHHH” here?
The value was “not soluble”.

With “MTKKELRAQIRQRNREMLAAENRERWSQSIIERIRRLDIFADAKRIGLYHALPDEPDLTGLLREYVQTKQLFIPRVEGDDIAFYAYTGEADLEAEGAYGIAEPTADAATAILPSSLDLLLVPGVAFDRKGSRMGRGKGYYDRFLPATQVRLIGVTFSYRLLEELPTDPWDRPMDGVITESETLFCLEHHHHHH” as the sequence, how does the “soluble on expression in E. coli” value read?
The value was “soluble”.

With “MPVTQEEIIAGIAEIIEEVTGIEPSEITPEKSFVDDLDIDSLSMVEIAVQTEDKYGVKIPDEDLAGLRTVGDVVAYIQKLEEENPEAAQALRAKIESENPDAVANVQARLEAESK” as the sequence, how does the “soluble on expression in E. coli” value read?
Its value is “soluble”.

With “MSLKNNRHFLKFYCIRDLSWLSSVRASFIYSSFESIASSPFSSYIELRKKPVKFLLILFIALTLCDCGRSKETQFYLLTPISPQKNSRNSYNHLQIGVDEVSIPDYMKKPQLMIHQTPHHLTLEEFNQWAGALDKNITLVLTTNLSTLMPGVVVQTSPWNNKFHPDYHLQVMISQFEIDIHGNSTLRAEYFIYRKEELIYKGNAYYHIKVPLISIETLVQSMNTNLTHLTEEIARFFIKNTTKEGHHHHHH” as the sequence, how does the “soluble on expression in E. coli” value read?
The value was “not soluble”.

For “MSLASKPSLLFVDDSKVMRLAADKMLGREFRVEVAENGLQAWTMVCHNPSISVVFSDLAMPEMDGFALLKKIRTSEDEGVAGLPVIIVTGAENDDEARAEALRLGGTDFISKPFNSTDLLARARAHANYQNERKEFAKQAMIDPLTRLGNRRYLLHRLRQELALAARQQYRLSVVQLEICQFNQLFVQLGKKRTDMVLLKLAQSLRGVIRKEDSLARSSVAQFTVLLPSAGPNGAKRFVERALKVSERLAFQFRGKVQRLPLTVIIHTPAVHAGLAPRQVQLALEEQLKQARKLGPGTVLSDDADTTLSVDESAPILTIEQALVLLRAGKPRAVVSALPDLERQLAPLLELMKRSASDQEGHHHHHH”, which “soluble on expression in E. coli” value is on record?
Its value is “not soluble”.

With “MSLKWLKKQAELYPQKQFLNDSTFAQINQEVNKMAEHLAPLIDNQSRVALLSENSVEMAVVLFALLGLSKEVLLLNRHLTEYELADQIKELKIDKVFTSDLLTEKVTDSISFSEIWTSNPCPVSLSADFPDEKIAVIMNTSATTGKFKSVPITWGMISNHVKASKETLGAYDNDNWLVILPMFHVSGLSIIMRTLYNATSATVVDKFDENQLLEMINSGKINMVSLVPTLLTRIADKLHSNNLRLILLGGEFIPQPLIKKCQELGLPIYKTYGMTESFSQSVTFNILDFPDKTSSVGRPLPGVEIEIRQADLAGVGEIWLKSPMLMKAYLGQKPYGTAFETGDIGYLDTDGFLYLLNRRKDIIISGGENIYPKEIEDLVYSLPEIKECALVAKPDAKWGQVPILFVSGNISQEKLENFLTEKLAKYKRPQSITFMDELPKNASGKILRKELKEGHHHHHH” as the sequence, how does the “soluble on expression in E. coli” value read?
The value was “soluble”.

With “MDKLKIIMEKGTERLKRGFAKMVKGGVIMDVTNAEQARIAEEAGAVAVMALHKVPADIRKAGGVARMAPVEKIQEIMDAVTIPVMAKCRIGHEAEARILEALGVDMIDESEVLTPADPFFHIYKKKFTAPFVCGARNLGEAVRRIWEGAAMIRTKGEAGTGNIIEAVRHVRLVNENIRLIQRMTDEEIYGVAEKFAEPYLRLAFSVKEISGLPKRVLENEPIYEGFTYREIVEDIYKILLEIKKLGRLPVVNFAAGGVATPADAALMMAMGMDGVFVGSGIFKSSNPPKMARAIVEAVNHWDEPDVLAEISREIGEPMRGQAIEELQVRMEERGILEHHHHHH” as the sequence, how does the “soluble on expression in E. coli” value read?
Its value is “not soluble”.

For “MGSDKIHHHHHHMLTRTHEAIPEIMYRIGDLADETGLPCYIVGGYVRDLIMQRPCTDIDIMVIGEPVPFAHALAEKLGGRNFVLFERFRTAQLELDDPKAGTFKLEIVGARKESYNPESRKPITSIGTLEDDLSRRDFTINALALRLNRKERGEVVDLFDGQRHIREKLLKTPLDPEQTFSDDPLRMMRAARFACQLDFQLDEATLTAMSTMSSRIQIVSRERVSHEFFKIMEARKPSIGLKILYSTGLLKEIIPELTVMAGIEQVDGLGHKDTLFHTFQVVDNLAEHSDKLWLRVSALFHDIAKPVTKRFHPGSGWTFHGHEAVGVKIVARIFRAMKWPLEPMEYVQKMVRLHHRPIPLSKEEITDSAVRRLMFDAGPDLDDLMTLCRADVTSKNPRKVQRIMKNFSNVEAKIAEVGEKDLLAKWRPPVSGTDIMELLNLPQGRTVGIIKSRMENAIIDGDIPYDRQAALDYIQQVYREMQEKGEA”, which “soluble on expression in E. coli” value is on record?
The value was “not soluble”.

With “MAMPTIRHVRAFIVRGGGADYHDQPGGHWIDDHISTPMARYPEYRQSRQSFGINVLGTLVVEIEASDGTVGFAVTTGGEIGAFIVEKHLARFLEGQLVTDIEKMWDQMYFSTLYYGRKGVVLNTISGVDLALWDLLAKVRKEPVYQLLGGPVRDELVFYATGARPDLAKEMGFIGGKLPLQHGPAEGDAGLRQNLDKLAEMRSRVGDDFWLMYDCWMSLDVPYATRLAQAAHEYGLKWIEECLPPDDYWGYAELRRNVPRGMMVSTGEHEATRWGFRMLLEMQCCDLIQPDVGWCGGITELIKISALADAHNVMVVPHGSSVYSYHFVVTRHNSPFAEFLMMAPKADEVVPMFTPLLLDEPVPVNGRMKVPDAPGFGVRLNPECALVRPYAR” as the sequence, how does the “soluble on expression in E. coli” value read?
Its value is “soluble”.

With “MSLKLNTSNSPFTEKQVTEINNLLQTLTESQQQWLSGFLLANSNDTTSDSNQQQLETEVWQQSQISEEQATSTTYMLQNKEPHIEANQRHVTVLYGSESGNAMRLAEIFSERLSDIGHQVVLMSMDEYDTTNIAQLEDLFIITSTHGEGEPPDNAWDFFEFLEDDNAPNLNHVRYSVLALGDQTYEFFCQAGKDVDALLENLGAERICKRVDCDIDYEEDAEKWMADIINMIDTTSEGIQSESVISESIKSAKEKKYSKLNPYQAEVLANINLNGTDSNKETRHIEFLLDDFSESYEPGDCIVALPQNDPELVEKLISMLGWDPQSPVPINDRGDTVPIVEALTSHFEFTKLTLPLLKNADIYFDNEELSERIQDESWAREYVINRDFIDLITDFPTIELQPENMYQILRKLPPREYSISSSFMATPDEVHITVGTVRYQAHGRERKGVCSVHFAERIKPGDIVPIYLKKNPNFKFPMKQDIPVIMIGPGTGIAPFRAYLQEREELGMTGKTWLFFGDQHRSSDFLYEEEIEEWLENGNLTRVDLAFSRDQEHKEYVQHRIMEESERFNEWIEQGAAIYICGDEKCMAKDVHQAIKDVLVKERHISQEEAELLLRQMKQQQRYQRDVYEGHHHHHH” as the sequence, how does the “soluble on expression in E. coli” value read?
The value was “soluble”.

For “GPPSGKTYMGWWGHMGGPKQKGITSYAVSPYAQKPLQGIFHNAVFNSFRRFKSQFLYVLIPAGIYWYWWKNGNEYNEFLYSKAGREELERVNV”, which “soluble on expression in E. coli” value is on record?
Its value is “soluble”.

With “MGSDKIHHHHHHMRIMPINSFENYPMSWKPSIDKAEKPIYKALAGQLEQDILNGVLLPGTKLPPQRELADYLDLNVSTISKAFKVCELKGLLSATVGSGTFVSYDALSNAYLLEDTKPTHLIEMGAILPDHASYEPLLYQLKNMVHEEDYEKWFSYGRAGESLWQKDAAVKLIQRGGFETSVDHILFANGGQNAIAATLASLCKPGDRIGVDHHTYPGLKTVASLLSVQIVPIKSENDEMSPESLEYACKNENIKGLYLIPDYHNPTTSFMSVENRRMVADIVKKYNLFVIEDASYHLLNKNPLPALASFAPQQVIHIASLSKSLAPGLRLAYVAVPRQYKEPISKALYNLNITVSPLLAELTARTIVSNQFEVLIESHREQTIRRNQLVNRYVAGYTCLGVETGIFRWLLLPGKMSGAEFEELAARLGVQVYAAERFVVGNSCPERAVRVSVCAPKTLEELEQGLMILRRLLDDLT” as the sequence, how does the “soluble on expression in E. coli” value read?
Its value is “not soluble”.

With “MGSDKIHHHHHHMSSLQILQGTFRLSDTKTLQLPQLTLNAGDSWAFVGSNGSGKSALARALAGELPLLKGERQSQFSHITRLSFEQLQKLVSDEWQRNNTDMLGPGEDDTGRTTAEIIQDEVKDAPRCMQLAQQFGITALLDRRFKYLSTGETRKTLLCQALMSEPDLLILDEPFDGLDVASRQQLAERLASLHQSGITLVLVLNRFDEIPEFVQFAGVLADCTLAETGAKEELLQQALVAQLAHSEQLEGVQLPEPDEPSARHALPANEPRIVLNNGVVSYNDRPILNNLSWQVNPGEHWQIVGPNGAGKSTLLSLVTGDHPQGYSNDLTLFGRRRGSGETIWDIKKHIGYVSSSLHLDYRVSTTVRNVILSGYFDSIGIYQAVSDRQQKLVQQWLDILGIDKRTADAPFHSLSWGQQRLALIVRALVKHPTLLILDEPLQGLDPLNRQLIRRFVDVLISEGETQLLFVSHHAEDAPACITHRLEFVPDGGLYRYVLTKIY” as the sequence, how does the “soluble on expression in E. coli” value read?
The value was “not soluble”.
